Experimental data as given in patent US20210324028A1 (Pfizer, published 2021).

What was measured:
human IL-2Rβ = target: T1, human IL-2Rβ (human, UniProt P14784 27-240, limits assumed); experiment: SPR, fusion captured
T1 construct: also called hIL-2Rβ; IL-2 receptor beta
T1 sequence (looked up): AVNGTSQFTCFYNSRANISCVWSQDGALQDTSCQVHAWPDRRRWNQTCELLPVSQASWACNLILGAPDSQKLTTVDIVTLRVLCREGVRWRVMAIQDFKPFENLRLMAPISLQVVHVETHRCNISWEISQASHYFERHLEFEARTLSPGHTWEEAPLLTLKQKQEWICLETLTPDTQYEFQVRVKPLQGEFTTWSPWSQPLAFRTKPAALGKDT
Method: (§1) Anti-human Fc sensor chips were prepared at 25° C. with a running buffer of 10 mM HEPES, 150 mM NaCl, 0.05% (v/v) Tween-20, pH 7.4. All surfaces of a Biacore CM4 sensor chip were activated with a 1:1 (v/v) mixture of 400 mM EDC and 100 mM NHS for 7 minutes, at a flow rate of 10 μL/min. An anti-human Fc reagent (Goat anti-human IgG Fc-γ specific, SouthernBiotech, Birmingham, Ala., Catalog #2014-01) was diluted to 50 μg/mL in 10 mM sodium acetate (pH 4.5) and injected on all flow cells for 7 minutes at 20 μL/min. All flow cells were blocked with 100 mM ethylenediamine in 200 mM Borate buffer pH 8.5 for 7 minutes at 10 μL/min.
(§2) All protein interaction experiments were performed at 37° C. using a running buffer of 10 mM HEPES, 150 mM NaCl, 0.05% (v/v) Tween-20, pH 7.4, 1 mg/mL BSA. Anti-PD-1-hIL-15 fusion proteins were captured at 10 μg/mL at a flow rate of 10 μL/min for 2 minutes. Different fusion proteins were captured in flow cells 2, 3 and 4. No protein was captured onto flow cell 1 which was used as a reference surface. […] After each analyte injection, dissociation was monitored for 5 minutes followed by regeneration of all flow cells with three 60-second injections of 75 mM phosphoric acid. […] For kinetic analysis, the double-referenced sensorgrams were fit globally to a simple 1:1 Langmuir with mass transport binding model using Biacore T200 Evaluation Software version 2.0. For steady-state affinity analysis, the double-referenced equilibrium binding responses were fit with a 1:1 Langmuir steady-state model using Biacore T200 Evaluation Software version 2.0.

human IL-15Rα = target: T2, human IL-15Rα (human, UniProt Q13261 31-205, limits assumed); experiment: SPR 37C, fusion captured by anti-human Fc
T2 construct: also called hIL-15Rα; IL-15 receptor alpha
T2 sequence (Q13261 31-205 limits assumed): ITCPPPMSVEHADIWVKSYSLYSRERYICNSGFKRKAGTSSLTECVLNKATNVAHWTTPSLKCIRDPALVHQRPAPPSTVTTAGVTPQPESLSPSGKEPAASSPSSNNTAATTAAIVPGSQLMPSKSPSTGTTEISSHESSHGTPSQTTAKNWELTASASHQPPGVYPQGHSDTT
Method: as §1, §2

Kd (human IL-2Rβ) [nM]	binding result (human IL-15Rα)	Binder
> 3000	no binding (tested: 3000 nM)	xmPD-1-hIL15 V49R/E46G/E64Q/D30N/M109A (other, not restated for this mutant) heavy 1: HHHHHHHHGGGGSGSGGEVQLVESGGGLVKPGGSLELSCAASGFTFSSYWMSWVRQAPEKGLEWVAAISPSGGSTYYADSVKGRFTISRDNAKNTLFLQMTSLRSEDTAMYYCAKESWGAYYDLWGQGTTVTVSSASTKGPSVFPLAPCSRSTSESTAALGCLVKDYFPEPVTVSWNSGALTSGVHTFPAVLQSSGLYSLSSVVTVPSSNFGTQTYTCNVDHKPSNTKVDKTVERKCRVRCPRCPAPPVAGPSVFLFPPKPKDTLMISRTPEVTCVVVAVSHEDPEVQFNWYVDGVEVHNAKTKPREEQFNSTFRVVSVLTVVHQDWLNGKEYKCKVSNKGLPSSIEKTISKTKGQPREPQVYTLPPSREEMTKNQVSLTCLVKGFYPSDIAVEWESNGQPENNYKTTPPMLDSDGSFFLYSRLTVDKSRWQQGNVFSCSVMHEALHNHYTQKSLSLSPGK heavy 2: EVQLVESGGGLVKPGGSLELSCAASGFTFSSYWMSWVRQAPEKGLEWVAAISPSGGSTYYADSVKGRFTISRDNAKNTLFLQMTSLRSEDTAMYYCAKESWGAYYDLWGQGTTVTVSSASTKGPSVFPLAPCSRSTSESTAALGCLVKDYFPEPVTVSWNSGALTSGVHTFPAVLQSSGLYSLSSVVTVPSSNFGTQTYTCNVDHKPSNTKVDKTVERKCEVECPECPAPPVAGPSVFLFPPKPKDTLMISRTPEVTCVVVAVSHEDPEVQFNWYVDGVEVHNAKTKPREEQFNSTFRVVSVLTVVHQDWLNGKEYKCKVSNKGLPSSIEKTISKTKGQPREPQVYTLPPSREEMTKNQVSLTCEVKGFYPSDIAVEWESNGQPENNYKTTPPMLDSDGSFFLYSKLTVDKSRWQQGNVFSCSVMHEALHNHYTQKSLSLSPGSGGGGGTSATATPGANWVNVISDLKKIEDLIQSMHIDATLYTESNVHPSCKVTAMKCFLLGLQRISLESGDASIHDTVQNLIILANNSLSSNGNVTESGCKECEELEEKNIKEFLQSFVHIVQAFINT light: DIVMTQSPSSLSVSAGDKVTMSCRASQGISSWLAWYQQKPWQPPKLLIYKASTLESGVPDRFTGSGSGTDFTLTISSVQAEDLAVYYCQQSYSTPWTFGGGTKLEIKGTVAAPSVFIFPPSDEQLKSGTASVVCLLNNFYPREAKVQWKVDNALQSGNSQESVTEQDSKDSTYSLSSTLTLSKADYEKHKVYACEVTHQGLSSPVTKSFNRGEC
> 1500		xmPD-1-hIL15 V49R/E46G/N1G/N4Q/D30N (other) heavy 1: EVQLVESGGGLVKPGGSLELSCAASGFTFSSYWMSWVRQAPEKGLEWVAAISPSGGSTYYADSVKGRFTISRDNAKNTLFLQMTSLRSEDTAMYYCAKESWGAYYDLWGQGTTVTVSSASTKGPSVFPLAPSSKSTSGGTAALGCLVKDYFPEPVTVSWNSGALTSGVHTFPAVLQSSGLYSLSSVVTVPSSSLGTQTYICNVNHKPSNTKVDKKVEPKSCDKTHTCPPCPAPEAAGAPSVFLFPPKPKDTLMISRTPEVTCVVVDVSHEDPEVKFNWYVDGVEVHNAKTKPREEQYNSTYRVVSVLTVLHQDWLNGKEYKCKVSNKALPAPIEKTISKAKGQPREPQVYTLPPCREEMTKNQVSLSCAVKGFYPSDIAVEWESNGQPENNYKTTPPVLDSDGSFFLVSKLTVDKSRWQQGNVFSCSVMHEALHNHYTQKSLSLSPGSGGGGSGGGGSGGGGGWVQVISDLKKIEDLIQSMHIDATLYTESNVHPSCKVTAMKCFLLGLQRISLESGDASIHDTVENLIILANNSLSSNGNVTESGCKECEELEEKNIKEFLQSFVHIVQMFINTS heavy 2: EVQLVESGGGLVKPGGSLELSCAASGFTFSSYWMSWVRQAPEKGLEWVAAISPSGGSTYYADSVKGRFTISRDNAKNTLFLQMTSLRSEDTAMYYCAKESWGAYYDLWGQGTTVTVSSASTKGPSVFPLAPSSKSTSGGTAALGCLVKDYFPEPVTVSWNSGALTSGVHTFPAVLQSSGLYSLSSVVTVPSSSLGTQTYICNVNHKPSNTKVDKKVEPKSCDKTHTCPPCPAPEAAGAPSVFLFPPKPKDTLMISRTPEVTCVVVDVSHEDPEVKFNWYVDGVEVHNAKTKPREEQYNSTYRVVSVLTVLHQDWLNGKEYKCKVSNKALPAPIEKTISKAKGQPREPQVCTLPPSREEMTKNQVSLWCLVKGFYPSDIAVEWESNGQPENNYKTTPPVLDSDGSFFLYSKLTVDKSRWQQGNVFSCSVMHEALHNHYTQKSLSLSPGK light: DIVMTQSPSSLSVSAGDKVTMSCRASQGISSWLAWYQQKPWQPPKLLIYKASTLESGVPDRFTGSGSGTDFTLTISSVQAEDLAVYYCQQSYSTPWTFGGGTKLEIKGTVAAPSVFIFPPSDEQLKSGTASVVCLLNNFYPREAKVQWKVDNALQSGNSQESVTEQDSKDSTYSLSSTLTLSKADYEKHKVYACEVTHQGLSSPVTKSFNRGEC
> 3000	no binding (tested: 3000 nM)	xmPD-1-hIL15Rasu-hIL15(E64Q/D30N/I68S) (other, not restated for this mutant) heavy 1: HHHHHHHHGGGGSGSGGEVQLVESGGGLVKPGGSLELSCAASGFTFSSYWMSWVRQAPEKGLEWVAAISPSGGSTYYADSVKGRFTISRDNAKNTLFLQMTSLRSEDTAMYYCAKESWGAYYDLWGQGTTVTVSSASTKGPSVFPLAPCSRSTSESTAALGCLVKDYFPEPVTVSWNSGALTSGVHTFPAVLQSSGLYSLSSVVTVPSSNFGTQTYTCNVDHKPSNTKVDKTVERKCRVRCPRCPAPPVAGPSVFLFPPKPKDTLMISRTPEVTCVVVAVSHEDPEVQFNWYVDGVEVHNAKTKPREEQFNSTFRVVSVLTVVHQDWLNGKEYKCKVSNKGLPSSIEKTISKTKGQPREPQVYTLPPSREEMTKNQVSLTCLVKGFYPSDIAVEWESNGQPENNYKTTPPMLDSDGSFFLYSRLTVDKSRWQQGNVFSCSVMHEALHNHYTQKSLSLSPGK heavy 2: EVQLVESGGGLVKPGGSLELSCAASGFTFSSYWMSWVRQAPEKGLEWVAAISPSGGSTYYADSVKGRFTISRDNAKNTLFLQMTSLRSEDTAMYYCAKESWGAYYDLWGQGTTVTVSSASTKGPSVFPLAPCSRSTSESTAALGCLVKDYFPEPVTVSWNSGALTSGVHTFPAVLQSSGLYSLSSVVTVPSSNFGTQTYTCNVDHKPSNTKVDKTVERKCEVECPECPAPPVAGPSVFLFPPKPKDTLMISRTPEVTCVVVAVSHEDPEVQFNWYVDGVEVHNAKTKPREEQFNSTFRVVSVLTVVHQDWLNGKEYKCKVSNKGLPSSIEKTISKTKGQPREPQVYTLPPSREEMTKNQVSLTCEVKGFYPSDIAVEWESNGQPENNYKTTPPMLDSDGSFFLYSKLTVDKSRWQQGNVFSCSVMHEALHNHYTQKSLSLSPGSGGGGGTSATATPGAITCPPPMSVEHADIWVKSYSLYSRERYICNSGFKRKAGTSSLTECVLNKATNVAHWTTPSLKCIRDPALVHQRPAPPSGGSGGGGSGGGSGGGGSGGNWVNVISDLKKIEDLIQSMHIDATLYTESNVHPSCKVTAMKCFLLELQVISLESGDASIHDTVQNLISLANNSLSSNGNVTESGCKECEELEEKNIKEFLQSFVHIVQMFINT light: DIVMTQSPSSLSVSAGDKVTMSCRASQGISSWLAWYQQKPWQPPKLLIYKASTLESGVPDRFTGSGSGTDFTLTISSVQAEDLAVYYCQQSYSTPWTFGGGTKLEIKGTVAAPSVFIFPPSDEQLKSGTASVVCLLNNFYPREAKVQWKVDNALQSGNSQESVTEQDSKDSTYSLSSTLTLSKADYEKHKVYACEVTHQGLSSPVTKSFNRGEC
